The values below come from paper PMC3361065 (Biochemistry, 2012).

For data set [1], the target named is T1, yeast MtRNAP with residues 1-264 deleted (ΔN2) (yeast, UniProt P13433 265-1351).
T1 sequence (looked up): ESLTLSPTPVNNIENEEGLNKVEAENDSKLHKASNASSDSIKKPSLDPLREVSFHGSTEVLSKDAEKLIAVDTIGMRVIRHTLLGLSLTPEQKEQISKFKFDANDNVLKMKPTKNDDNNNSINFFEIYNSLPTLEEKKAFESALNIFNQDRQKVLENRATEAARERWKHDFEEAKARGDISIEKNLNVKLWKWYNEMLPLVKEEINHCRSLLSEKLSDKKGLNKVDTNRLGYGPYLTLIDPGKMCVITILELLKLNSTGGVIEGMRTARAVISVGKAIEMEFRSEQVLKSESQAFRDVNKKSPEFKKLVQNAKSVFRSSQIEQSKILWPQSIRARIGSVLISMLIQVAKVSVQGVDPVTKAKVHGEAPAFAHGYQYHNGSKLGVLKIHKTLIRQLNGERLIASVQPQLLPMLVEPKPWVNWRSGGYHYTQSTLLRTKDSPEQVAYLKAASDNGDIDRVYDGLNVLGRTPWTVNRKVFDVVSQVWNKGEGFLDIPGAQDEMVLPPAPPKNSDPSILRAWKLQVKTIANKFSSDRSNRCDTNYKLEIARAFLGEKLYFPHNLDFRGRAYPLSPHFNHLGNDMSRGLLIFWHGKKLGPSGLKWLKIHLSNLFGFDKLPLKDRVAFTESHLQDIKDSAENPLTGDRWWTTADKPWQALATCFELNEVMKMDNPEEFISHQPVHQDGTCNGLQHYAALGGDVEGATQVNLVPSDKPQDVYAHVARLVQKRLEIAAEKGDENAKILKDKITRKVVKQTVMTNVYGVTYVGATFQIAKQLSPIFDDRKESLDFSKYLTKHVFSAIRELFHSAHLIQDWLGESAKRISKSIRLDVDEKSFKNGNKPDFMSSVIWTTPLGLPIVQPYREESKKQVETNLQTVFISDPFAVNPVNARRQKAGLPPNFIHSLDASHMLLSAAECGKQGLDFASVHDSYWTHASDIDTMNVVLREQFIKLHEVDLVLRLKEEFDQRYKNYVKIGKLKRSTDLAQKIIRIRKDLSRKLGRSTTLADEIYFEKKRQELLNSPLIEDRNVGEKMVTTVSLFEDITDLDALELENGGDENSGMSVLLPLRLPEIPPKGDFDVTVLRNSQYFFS
Briefly: native gel or EMSA. For orientation: In EMSA bound probe runs differently from free probe, usually more slowly.

The target of data set [2] is T2, yeast MtRNAP with residues 1-358 deleted (ΔN1) (yeast, UniProt P13433 359-1351).
T2 sequence (looked up): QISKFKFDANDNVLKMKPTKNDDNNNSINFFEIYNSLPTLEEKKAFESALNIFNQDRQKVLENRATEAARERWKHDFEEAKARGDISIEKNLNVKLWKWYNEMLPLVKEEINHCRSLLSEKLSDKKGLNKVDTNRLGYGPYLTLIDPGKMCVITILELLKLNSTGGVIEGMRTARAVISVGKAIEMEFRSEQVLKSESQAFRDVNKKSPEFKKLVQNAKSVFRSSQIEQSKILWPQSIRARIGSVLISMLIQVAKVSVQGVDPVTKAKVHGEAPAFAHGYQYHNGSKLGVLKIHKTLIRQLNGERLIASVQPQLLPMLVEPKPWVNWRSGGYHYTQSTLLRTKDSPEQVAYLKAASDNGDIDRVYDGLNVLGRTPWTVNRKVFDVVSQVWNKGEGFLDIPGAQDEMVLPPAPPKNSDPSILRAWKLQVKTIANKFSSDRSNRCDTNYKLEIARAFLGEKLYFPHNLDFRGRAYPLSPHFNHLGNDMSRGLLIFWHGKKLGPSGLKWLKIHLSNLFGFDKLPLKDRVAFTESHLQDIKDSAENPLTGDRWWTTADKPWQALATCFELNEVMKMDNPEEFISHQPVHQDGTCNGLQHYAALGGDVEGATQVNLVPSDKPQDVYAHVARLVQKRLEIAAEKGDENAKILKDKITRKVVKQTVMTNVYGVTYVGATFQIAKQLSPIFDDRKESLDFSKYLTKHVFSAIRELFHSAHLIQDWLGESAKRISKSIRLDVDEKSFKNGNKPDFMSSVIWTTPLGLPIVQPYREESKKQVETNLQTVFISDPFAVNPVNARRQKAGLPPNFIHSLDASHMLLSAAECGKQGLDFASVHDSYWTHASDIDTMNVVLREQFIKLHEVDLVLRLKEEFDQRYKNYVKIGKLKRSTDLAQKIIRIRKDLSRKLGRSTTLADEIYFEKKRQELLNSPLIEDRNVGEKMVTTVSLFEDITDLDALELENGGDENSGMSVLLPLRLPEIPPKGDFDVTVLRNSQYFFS
Briefly: ultrafiltration retention.

The target of data set [3] is yeast mitochondrial RNA polymerase (scMtRNAP) WT;MTF1 (yeast mitochondrial transcription factor) (Saccharomyces cerevisiae?;Saccharomyces …, UniProt P13433;P14908 1-1351;1-341, |). Briefly: EMSA.
Sequence of yeast mitochondrial RNA polymerase (scMtRNAP) WT;MTF1 (yeast mitochondrial transcription factor) (P13433 whole entry, chain 1 of 2, one chain of several): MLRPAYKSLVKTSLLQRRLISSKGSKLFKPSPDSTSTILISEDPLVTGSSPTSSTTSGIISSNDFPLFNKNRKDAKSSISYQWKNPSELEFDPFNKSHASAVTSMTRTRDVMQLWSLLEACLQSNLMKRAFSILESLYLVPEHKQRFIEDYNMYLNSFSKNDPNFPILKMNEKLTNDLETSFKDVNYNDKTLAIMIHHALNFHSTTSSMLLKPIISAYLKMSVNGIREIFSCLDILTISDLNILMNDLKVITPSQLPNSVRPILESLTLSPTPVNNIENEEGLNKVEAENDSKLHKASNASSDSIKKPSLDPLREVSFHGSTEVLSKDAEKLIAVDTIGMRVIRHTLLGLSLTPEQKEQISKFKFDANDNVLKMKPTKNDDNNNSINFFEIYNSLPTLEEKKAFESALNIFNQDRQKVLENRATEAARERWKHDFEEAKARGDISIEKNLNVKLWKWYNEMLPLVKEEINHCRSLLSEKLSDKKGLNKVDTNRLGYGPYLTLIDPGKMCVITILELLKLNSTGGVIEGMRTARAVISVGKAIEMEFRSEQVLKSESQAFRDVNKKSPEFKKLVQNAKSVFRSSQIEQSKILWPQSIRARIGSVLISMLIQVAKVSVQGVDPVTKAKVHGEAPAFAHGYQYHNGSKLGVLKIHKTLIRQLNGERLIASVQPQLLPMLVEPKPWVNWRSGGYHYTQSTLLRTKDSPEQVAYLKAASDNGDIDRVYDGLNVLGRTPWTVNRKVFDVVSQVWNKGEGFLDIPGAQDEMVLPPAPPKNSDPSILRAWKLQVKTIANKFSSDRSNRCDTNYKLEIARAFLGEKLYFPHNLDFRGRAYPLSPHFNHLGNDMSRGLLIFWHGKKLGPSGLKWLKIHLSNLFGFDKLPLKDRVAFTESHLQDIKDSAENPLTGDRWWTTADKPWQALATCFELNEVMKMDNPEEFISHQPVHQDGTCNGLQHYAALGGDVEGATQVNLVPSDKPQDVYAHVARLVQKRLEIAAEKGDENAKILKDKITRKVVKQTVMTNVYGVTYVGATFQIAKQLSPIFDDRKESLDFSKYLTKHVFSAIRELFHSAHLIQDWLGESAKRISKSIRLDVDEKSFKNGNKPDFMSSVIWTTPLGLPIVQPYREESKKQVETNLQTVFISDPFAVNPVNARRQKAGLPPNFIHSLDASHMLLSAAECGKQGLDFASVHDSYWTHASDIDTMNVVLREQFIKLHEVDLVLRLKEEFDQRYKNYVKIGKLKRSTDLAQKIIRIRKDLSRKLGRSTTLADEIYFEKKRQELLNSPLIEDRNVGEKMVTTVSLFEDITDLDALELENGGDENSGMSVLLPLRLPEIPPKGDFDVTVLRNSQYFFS

B1: yeast mitochondrial transcription factor MTF1 (natural protein, UniProt P14908 1-341, looked up)
chain: MSVPIPGIKDISKLKFFYGFKYLWNPTVYNKIFDKLDLTKTYKHPEELKVLDLYPGVGIQSAIFYNKYCPRQYSLLEKRSSLYKFLNAKFEGSPLQILKRDPYDWSTYSNLIDEERIFVPEVQSSDHINDKFLTVANVTGEGSEGLIMQWLSCIGNKNWLYRFGKVKMLLWMPSTTARKLLARPGMHSRSKCSVVREAFTDTKLIAISDANELKGFDSQCIEEWDPILFSAAEIWPTKGKPIALVEMDPIDFDFDVDNWDYVTRHLMILKRTPLNTVMDSLGHGGQQYFNSRITDKDLLKKCPIDLTNDEFIYLTKLFMEWPFKPDILMDFVDMYQTEHSG
On to B1, for which the binding result in data set [1] and in data set [2] was “binds” in each case.

B2: 33 bp Duplex promoter (dsDNA)
DNA 1: CGCGTAAAACTATTCTTTATTACTTATATCGCG
DNA 2: CGCGATATAAGTAATAAAGAATAGTTTTACGCG
In data set [3], B2 had a Kd of 480 nM.

In general, Kd refers to the equilibrium constant for the complex coming apart. The low end stands for tighter binding, the high end for weaker binding.
